Measurements reported in publication PMC2745200 (Biochimie, 2009).

Biological target: the molecule itself
Experiment: SEC

B1: human ω-amidase/Nit2 (nitrilase-like protein 2) (enzyme, UniProt Q9NQR4 1-276, looked up)
chain: MTSFRLALIQLQISSIKSDNVTRACSFIREAATQGAKIVSLPECFNSPYGAKYFPEYAEKIPGESTQKLSEVAKECSIYLIGGSIPEEDAGKLYNTCAVFGPDGTLLAKYRKIHLFDIDVPGKITFQESKTLSPGDSFSTFDTPYCRVGLGICYDMRFAELAQIYAQRGCQLLVYPGAFNLTTGPAHWELLQRSRAVDNQVYVATASPARDDKASYVAWGHSTVVNPWGEVLAKAGTEEAIVYSDIDLKKLAEIRQQIPVFRQKRSDLYAVEMKKP
  stoichiometry N: 2
